{"source": "patent US20190262398", "about": "“TIM3 HOMING ENDONUCLEASE VARIANTS, COMPOSITIONS, AND METHODS OF USE” (bluebird bio, Inc., published 2019)", "binders": {"B1": {"name": "TIM3 exon 2 HE target site (dsDNA)", "DNA 1": "TGTCCAATAATTCACATCCCTT", "DNA 2": "AAGGGATGTGAATTATTGGACA"}}, "key": {"[1]": {"molecular_target": "T1, TIM3_rd3.22 HE (I-OnuI variant), mammalian expression (Artificial (I-OnuI from Ophiostoma …))", "T1 chain": "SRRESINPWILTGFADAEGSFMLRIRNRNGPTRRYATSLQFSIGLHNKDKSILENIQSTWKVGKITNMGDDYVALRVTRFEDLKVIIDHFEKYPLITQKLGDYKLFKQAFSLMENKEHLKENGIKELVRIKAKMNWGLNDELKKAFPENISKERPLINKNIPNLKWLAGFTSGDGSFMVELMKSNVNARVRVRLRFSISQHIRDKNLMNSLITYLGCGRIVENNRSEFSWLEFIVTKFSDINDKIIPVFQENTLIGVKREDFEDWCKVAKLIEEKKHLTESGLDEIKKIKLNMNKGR", "test": "cell_activity; HEK293T chromosomal mCherry reporter; approx 4-fold higher rate of mCherry cells after refinement", "protocol": "The activity of reprogrammed I-OnuI HEs that target exon 2 of the TIM3 gene was measured using a chromosomally integrated fluorescent reporter system (Certo et. al., 2011). Fully reprogrammed I-OnuI HEs that bind and cleave the TIM3 target sequence were cloned into mammalian expression plasmids and then individually transfected into a HEK 293T […] cell line that was reprogrammed to contain the TIM3 target sequence upstream of an out-of-frame gene encoding the fluorescent mCherry protein. Cleavage of the embedded target site by the HE and the subsequent accumulation of small insertions or deletions, caused by DNA repair via the non-homologous end joining (NHEJ) pathway, results in approximately one out of three repaired loci placing the fluorescent reporter gene back “in-frame”. mCherry fluorescence is therefore a readout of endonuclease activity at the chromosomally embedded target sequence. […] FIG. 3 (top panel).\nA secondary I-OnuI variant library was generated by performing random mutagenesis on one of the reprogrammed I-OnuI HEs that targets the TIM3 target site identified in the initial reporter screen (TIM3_rd1.12, SEQ ID NO: 6). In addition, display-based flow sorting was performed under more stringent cleavage conditions in an effort to isolate variants with improved catalytic efficiency. FIG. 3 (middle panel). […]"}, "[2]": {"molecular_target": "T2, TIM3_rd3.22 HE (I-OnuI variant) (Artificial (I-OnuI from Ophiostoma …))", "T2 chain": "T1 chain", "test": "flow; yeast surface display substrate titration; stated as subnanomolar affinity", "settings": "tags: yeast surface display"}}, "data": [{"binder": "B1", "values": [{"measurement": "activity", "setting": "[1]", "result": "~4", "unit": "fold"}, {"measurement": "Kd", "setting": "[2]", "result": "< 1", "unit": "nM"}]}]}
